Results taken from US12618835B2, “Multiplex microelectrode array for detection of proteases as biomarkers” (Kansas State University Research Foundation, priority 2021, dated 2026).
Several values for one entry are separate records, joined by “and”; a condition that tells them apart may be missing. Identical values can stand only once. Entries after “also recorded” stand apart in the source; their conditions may differ. Where no end group is shown, it is not given here. [ ]: non-standard residue; d: D form. The star is where a group is joined. aminomethylferrocene = [Fe+2].c1cc[c-](CN*)c1.c1cc[cH-]c1; Ava = NCCCCC(=O)O

What was measured:
cathepsin B [1] = biological target: T1, cathepsin B (Homo sapiens, UniProt P07858); assay: Electrochemical (AC voltammetry) proteolysis of peptide-Fc substrates on 3x3 Au MEA, Example 1; assay type: biochemical; parameters: purchased R&D Systems Inc. (Minneapolis, MN); settings: for 1/τ AVG: average of 3 channels per peptide, 50 mM MES buffer pH=5.0, FIG. 8; for average values of 1/τ: three peptides on one MEA, 3 channels each, 50 mM MES pH=5.0
Source text: N-Fluorenylmethyloxycarbonyl (Fmoc) protected amino acids, amino acid attached 2-chlorotrityl resins, 1-[bis(dimethylamino)methylene]-1H-1,2,3-triazolo[4,5-b]pyridinium 3-oxide hexafluorophosphate (HATU), and 2-(1H-benzotriazol-1-yl)-1,1,3,3-tetramethyluronium hexafluorophosphate (HBTU) were purchased from Chem-Impex International, Inc. (Wood Dale, IL) and AAPPTEC LLC (Louisville, KY). Potassium hexacyanoferrate (II) trihydrate, potassium nitrate, 1-ethyl-3-(3-dimethylaminopropyl)carbodiimide (EDC), N-hydroxysulfosuccinimide (Sulfo-NHS), 6-mercapto-1-hexanol, and 6-mercapto-1-hexanoic acid were obtained from Sigma-Aldrich (St. Louis, MO). Dithiothreitol (DTT), sodium phosphate dibasic heptahydrate (Na2HPO4·7H2O), sodium phosphate monobasic (NaH2PO4) and 2-(4-morpholino)ethanesulfonic acid ([…]) were purchased from Fisher Scientific (Hampton, NH). […] Cathepsin B solutions were activated by incubation in 25 mM MES buffer (pH=5.0) containing 5 mM DTT for 15 min before proteolysis experiments.
Electrochemical measurements were performed using an Ivium n-Stat Potentiostat (Eindhoven, The Netherlands) outfitted with five dual channel modules, allowing up to ten independent working electrodes to function simultaneously with a common reference and counter electrodes. […] In this study, the nine leads from the potentiostat (FIG. 9b) were interfaced with a breakout box, which was then connected to a custom-built electrochemical cell via a ribbon cable (FIG. 9c). The sensor chip consists of nine lithographically patterned Au working microelectrodes placed in the custom-built electrochemical cell (FIG. 9d) and electrical contact was made via pogo pins. All measurements were performed using a common mercury/mercurous sulfate reference electrode (Hg/Hg2SO4, MSE) filled with a saturated solution of K2SO4 (CH Instruments, Austin, TX) and a common Pt wire counter electrode.
Prior to use, the MEAs were sonicated in acetone for 1 minute, subsequently rinsed with methanol and isopropanol for 15 s and then dried by blowing with nitrogen. Next, the electrodes were placed in the experimental cell and electrochemically cleaned by cycling from −0.60 to 0.70 V vs. MSE in 0.10 M phosphate buffer (pH=7.4). For the experiments using an MEA modified with the same peptide-Fc substrate (i.e., H-15) on all nine microelectrodes, the whole chip was incubated in a mixture of 1.0 mM 6-mercapto-1-hexanol and 0.2 mM 6-mercapto-1-hexanoic acid in deionized water for 40 min to form a self-assembled monolayer (SAM). This step passivated the entire Au microelectrode surface while leaving adequate spacing between the exposed carboxyl functionalities. Next, the electrodes were incubated in a solution containing 2.0 mM peptide-Fc substrate (i.e., H-3, H-15, or H-16), 0.20 g/l EDC and 0.20 g/l sulfo-NHS for 2 hours at room temperature so that the peptides were covalently attached to the carboxyl groups of the SAM through the formation of amide bonds. The low ratio of carboxyl to hydroxyl groups at the SAM surface ensured a large separation between the peptide-Fc molecules which was important to reduce the steric hindrance during subsequent proteolysis measurements. Finally, the electrodes were rinsed with deionized water to remove any non-bound peptide-Fc substrate that may be physiosorbed on the surface. For multiplex experiments, the chip was masked with a ˜1.2 mm thick polydimethylsiloxane (PDMS) film punched with a 3×3 array of ˜0.7 mm diameter holes that were aligned on top of each Au microelectrodes. About 100 μl mixed thiol solution (6-mercapto-1-hexanol and 6-mercapto-1-hexanoic acid) as described above was added on the chip surface to fill all nine PDMS holes and was incubated for 40 min. Then, the microelectrodes and wells were rinsed and dried on a hot plate at 35° C. Finally, 0.50 μl of the EDC/sulfo-NHS/peptide-Fc (H-3, H-15, or H-16) reaction mixture was added to each well using a nanoinjector mounted on a x-y-z-micromanipulator and incubated for 2 h. […]

cathepsin B [2] = biological target: T1, cathepsin B; assay: Screening of peptide-Fc substrates for cathepsin B (electrochemical measurements, fluorogenic assays, HPLC-MS); assay type: biochemical; settings: for proteolysis rate by cathepsin B compared to other candidates: library of nine peptide-Fc substrates
Source text: A library of nine peptide substrates was examined initially for proteolysis using cathepsin B (Table S1). […] The order and amino acid sequence of the peptide substrates were designed according to the literature reported sequences with minor modifications. Among the nine peptides, three most reactive peptide substrates, i.e., H-3, H-15, and H-16 (Table 1), were selected for our studies on cathepsin B activity profiling. The peptides were designed based on literature reports and synthesized using a solid-phase microwave peptide synthesizer detailed in the Supporting Information below. For example, peptide H-15, a representative peptide, was made by the coupling of H-Ala-2-chlorotrityl resin with various N-fluorenylmethyloxycarbonyl-amino acids (N-Fmoc-amino acids) sequentially, condensing with the linker N-Boc-NH—(CH2)4—CO2H, cleavage of the peptide from the resin, re-protection of the amino group of linker, bonding with (aminomethyl)ferrocene, and removal of the protecting group.
We have designed and synthesized nine different peptide-Fc substrates containing 6-8 amino acids (listed in Table S1 below) for proteolysis by cathepsin B based on the specific recognition reported in literature and tested the cathepsin B activities on these peptide-Fc substrates by the combination of electrochemical measurements (using Au disk electrodes and VACNF nanoelectrode arrays), fluorogenic assays and HPLC-MS analysis.

cathepsin B [3] = biological target: T1, cathepsin B; parameters: purchased R&D Systems Inc. (Minneapolis, MN); settings: previous finding; cited from earlier work

Row | Substance | 1/τ AVG (cathepsin B [1]; 6.0 nM cathepsin B) | average values of 1/τ (cathepsin B [1]; 6.0 nM cathepsin B) | proteolysis rate by cathepsin B compared to other candidates (cathepsin B [2]) | cleavage site by cathepsin B (found previously) (cathepsin B [3]) | average value of 1/τ (cathepsin B [1]; CH 1-6, 6.0 nM cathepsin B, MES buffer pH=5.0) | fitted value of 1/τ (cathepsin B [1]; CH 4, 6.0 nM cathepsin B, 25 mM MES buffer pH=5.0) | 1/τ Avg (cathepsin B [1]; average of channels 1-6, H-15 modified Au MEA, 6.0 nM cathepsin B, MES buffer pH=5.0) | 1/τ (cathepsin B [1]; individual channels 1-6 of H-15 modified Au MEA, 6.0 nM cathepsin B, MES buffer pH=5.0, FIG. 7) | proteolytic activity by cathepsin B among synthesized peptides (cathepsin B [2]; selected from about 30 synthesized peptides)
1 | H2N-(CH2)4-CO-Pro-Leu-Ala-Gly-Val-Ala-NH-CH2-Fc ([Ava]PLAGVA-aminomethylferrocene) [Peptide H-16] | 8.90 s⁻¹ | (8.9±1.1)×10^−4 s^−1 | most reactive; also recorded: higher proteolysis rates |  |  |  |  |  | 
2 | H2N-(CH2)4-CO-Pro-Leu-Arg-Phe-Gly-Ala-NH-CH2-Fc ([Ava]PLRFGA-aminomethylferrocene) [Peptide H-3] | 7.36 s⁻¹ | (7.4±0.9)×10^−4 s^−1 | most reactive; also recorded: higher proteolysis rates | between the Gly-Ala residues and between the Phe-Gly residues |  |  |  |  | 
3 | H2N-(CH2)4-CO-Pro-Leu-Ala-Phe-Val-Ala-NH-CH2-Fc ([Ava]PLAFVA-aminomethylferrocene) [Peptide H-15] | 6.79 s⁻¹ | (6.8±1.8)×10^−4 s^−1 | most reactive; also recorded: higher proteolysis rates |  | (6.63±0.87)×10^−4 s^−1 | 0.000684 s⁻¹ | 0.000663 s⁻¹ | 0.000684 s⁻¹ and 0.000779 s⁻¹ and 0.000645 s⁻¹ and 0.00055 s⁻¹ and 0.000734 s⁻¹ and 0.000588 s⁻¹ | highest proteolytic activity
